Patent US20120107364A1 (ACTGEN, published 2012)

How the values were obtained:
Assay in all cases: flow cytometry on Ba/F3 cells expressing the truncated PODXL2
[1] = target: T1, PODXL2, positions 1 to 360 (human, UniProt O00592 23-392)
T1 construct: One of the 14 C-terminal truncations; Expressed on Ba/F3 cells; also called R360
T1 sequence: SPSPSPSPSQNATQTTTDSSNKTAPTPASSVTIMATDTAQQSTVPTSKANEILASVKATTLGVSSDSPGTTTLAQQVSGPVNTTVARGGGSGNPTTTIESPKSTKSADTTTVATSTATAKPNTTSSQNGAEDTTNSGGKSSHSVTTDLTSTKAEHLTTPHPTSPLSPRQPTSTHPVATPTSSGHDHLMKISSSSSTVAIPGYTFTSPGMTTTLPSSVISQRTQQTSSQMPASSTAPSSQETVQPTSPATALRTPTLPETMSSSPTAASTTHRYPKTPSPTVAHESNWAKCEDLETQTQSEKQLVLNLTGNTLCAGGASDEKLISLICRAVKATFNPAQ
Method: (§1) To each sample of the cell suspension, 50 μl of the hybridoma culture supernatant or 2-μg/ml of the purified antibody (hereinafter, referred to as an “antibody solution”) was added, and the antibody was reacted with the cells. As an isotype control of the antibody solution, a wash buffer containing 2 μg/ml of each of mouse IgG1 (BioLegend, 400412), mouse IgG2a (BioLegend, 400224), and mouse IgG2b (BioLegend, 400324) was used. The hybridoma culture supernatant was reacted with the target cells at room temperature for 30 minutes, followed by centrifugation at 700×g for 2 minutes. Then, a culture supernatant was removed. Further, 100 μl of a wash buffer was added, followed by centrifugation at 700×g for 2 minutes again. A supernatant was removed. Then, the cells were washed.
(§2) Next, to the cell pellets after the washing, 50 μl of Goat anti-mouse IgG, F(ab′) 2-PE (PE=phycoerythrin, Beckman Coulter, IM0855) diluted 200-fold with a wash buffer was added as a secondary antibody for detection, and reacted in the dark at room temperature for 30 minutes. The reaction was followed by centrifugation at 700×g for 2 minutes. A supernatant was removed. Further, 100 μl of a wash buffer was added, followed by centrifugation at 700×g for 2 minutes again. A supernatant was removed. Then, the cells were washed. Thereafter, the cells were suspended in an appropriate amount of a wash buffer. The reactivity between the antibody and the cells was analyzed by a flow cytometer (Beckman Coulter, FC500 MPL).
(§3) Thereafter, by the same method as in Example 1 (4) (the virus packaging and thereafter), Ba/F3 cells containing the PODXL2 gene sequences of various chain lengths were prepared. Further, by the same method as in Example 4, the reactivity between the ACT36-27_{—}5D1 antibody and the Ba/F3 cells expressing the PODXL2 molecules of various chain lengths was analyzed by a flow cytometer (FIG. 10).

[2] = target: T2, PODXL2, positions 1 to 350 (human, UniProt O00592 23-382)
T2 construct: One of the 14 C-terminal truncations; Expressed on Ba/F3 cells; also called R350
T2 sequence: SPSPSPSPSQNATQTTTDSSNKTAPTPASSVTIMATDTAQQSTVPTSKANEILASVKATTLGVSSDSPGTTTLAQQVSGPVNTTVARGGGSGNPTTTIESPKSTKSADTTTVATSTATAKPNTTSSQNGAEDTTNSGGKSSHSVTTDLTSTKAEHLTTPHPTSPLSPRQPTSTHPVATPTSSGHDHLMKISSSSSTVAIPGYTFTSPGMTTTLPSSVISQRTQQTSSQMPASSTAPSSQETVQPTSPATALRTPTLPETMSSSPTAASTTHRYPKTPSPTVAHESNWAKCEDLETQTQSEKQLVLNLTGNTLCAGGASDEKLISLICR
Method: as §1, §2, §3

[3] = target: T3, PODXL2, positions 1 to 410 (human, UniProt O00592 23-442)
T3 construct: Encoded as positions 1-410 in pMX-SST and expressed on Ba/F3 cells; The vector-encoded part is not described; also called R410
T3 sequence: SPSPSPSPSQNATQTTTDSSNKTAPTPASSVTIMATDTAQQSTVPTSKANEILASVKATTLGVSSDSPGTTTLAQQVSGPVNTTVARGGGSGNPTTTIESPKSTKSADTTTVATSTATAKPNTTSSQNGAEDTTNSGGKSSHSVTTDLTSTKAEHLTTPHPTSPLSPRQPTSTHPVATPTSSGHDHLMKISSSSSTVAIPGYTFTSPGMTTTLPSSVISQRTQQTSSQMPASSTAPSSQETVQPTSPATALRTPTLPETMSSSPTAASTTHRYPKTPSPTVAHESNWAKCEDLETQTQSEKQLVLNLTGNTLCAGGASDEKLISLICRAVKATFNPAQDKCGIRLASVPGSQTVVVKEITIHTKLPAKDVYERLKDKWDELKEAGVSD
Method: as §1, §2, §3

[4] = target: T4, PODXL2, positions 1 to 400 (human, UniProt O00592 23-432)
T4 construct: Encoded as positions 1-400 in pMX-SST and expressed on Ba/F3 cells; The vector-encoded part is not described; also called R400
T4 sequence: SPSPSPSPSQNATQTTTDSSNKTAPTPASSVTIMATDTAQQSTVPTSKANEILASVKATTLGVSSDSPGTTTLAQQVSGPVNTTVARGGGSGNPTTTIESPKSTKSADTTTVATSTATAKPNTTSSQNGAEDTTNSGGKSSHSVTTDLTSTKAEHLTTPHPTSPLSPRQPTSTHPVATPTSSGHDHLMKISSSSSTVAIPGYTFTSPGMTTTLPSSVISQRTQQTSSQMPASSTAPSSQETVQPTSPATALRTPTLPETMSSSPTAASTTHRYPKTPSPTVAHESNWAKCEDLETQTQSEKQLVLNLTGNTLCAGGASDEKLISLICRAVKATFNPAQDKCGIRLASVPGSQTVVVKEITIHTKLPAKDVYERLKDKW
Method: as §1, §2, §3

[5] = target: T5, PODXL2, positions 1 to 370 (human, UniProt O00592 23-402)
T5 construct: One of the 14 C-terminal truncations; Expressed on Ba/F3 cells; also called R370
T5 sequence: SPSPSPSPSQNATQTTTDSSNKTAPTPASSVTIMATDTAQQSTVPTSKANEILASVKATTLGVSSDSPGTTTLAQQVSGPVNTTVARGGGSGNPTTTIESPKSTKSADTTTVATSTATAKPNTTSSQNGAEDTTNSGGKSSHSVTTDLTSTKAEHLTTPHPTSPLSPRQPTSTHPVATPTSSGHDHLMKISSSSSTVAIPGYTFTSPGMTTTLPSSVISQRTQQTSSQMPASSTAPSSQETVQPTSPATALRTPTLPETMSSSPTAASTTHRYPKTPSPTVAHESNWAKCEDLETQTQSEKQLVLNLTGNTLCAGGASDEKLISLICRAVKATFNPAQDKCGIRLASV
Method: as §1, §2, §3

binding result [1]: no binding
binding result [2]: no binding
binding result [3]: binds
binding result [4]: no binding
binding result [5]: no binding
B1: ACT36-27-5D1 antibody (antibody, V domains shown)
VH: EVQLQQSGPELVKPGASVKMSCKASGYTFTSYVMHWVKQKPGQGLEWIGYIHPYNDGIKYNEKFKGKATLTSDKSSSTAYMDLSSLTSEDSAVYYCARSWDWYFDVWAAGTTVTVSS
VL: QIVLTQSPAIMSASPGEKVSMTCSASSSVSYMHWYQQKSGTSPKRWIYDTSKLASGVPARFSGSGSGTSYSLTISSMEAEDAATYYCLQWSSNPPTFGGGTKLE
notes: also called anti-PODXL2 antibody ACT36-27-5D1; anti-ACT36-27-5D1 monoclonal antibody
